Assay [1] concerns the target HCMV gp34 ectodomain displayed on ExpiCHO cells (human cytomegalovirus (HCMV)) (UniProt P16809). The experiment in a line: flow cytometry, ExpiCHO cells displaying the ectodomain, goat anti-Fc gamma-AF647, 4PL fit; EC50 unit inferred, x axis IgG (nM). For orientation: In flow cytometry, cells or beads pass a laser one at a time.
The target in assay [2] is HCMV AD169 gpRL12 ectodomain displayed on ExpiCHO cells (human cytomegalovirus (HCMV), strain AD169) (UniProt P16810). The assay is described as above.
For assay [3], the target named is human CD16A F158 allotype (human) (UniProt P08637). The experiment in a line: BLI (Octet RED96e), steady state; hu4D5 variant on FAB2G tips, CD16A F158 5000-156.25 nM, pH 7.4. A general note: Biolayer interferometry detects binding as a change in optical thickness at a sensor tip.
Sequence of human CD16A F158 allotype (human) (P08637 17-208 limits assumed): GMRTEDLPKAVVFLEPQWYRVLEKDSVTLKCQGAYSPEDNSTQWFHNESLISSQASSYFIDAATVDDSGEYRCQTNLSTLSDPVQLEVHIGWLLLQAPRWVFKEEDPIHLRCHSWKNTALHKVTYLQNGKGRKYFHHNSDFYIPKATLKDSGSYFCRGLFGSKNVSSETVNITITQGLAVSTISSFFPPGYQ
Assay [4] addresses soluble truncated HCMV gp68 ectodomain (t-gp68) (human cytomegalovirus (HCMV)) (UniProt F5HC14). Briefly: SPR (Biacore X100), equilibrium (steady state) KD; t-gp68 captured by anti-strep Fab, hu4D5 Fc variant injected. (In SPR one partner is held on a chip, and binding of the other changes the refractive index at the surface.)
In assay [5] the target is soluble HCMV gp34 ectodomain with C150S (gp34-M) (human cytomegalovirus (HCMV), strain AD169) (UniProt P16809). Briefly: SPR (Biacore X100), kinetic KD; gp34-M captured by anti-strep Fab on CM5, hu4D5 Fc variant injected; 1:1 fit.
The target of assay [6] is soluble truncated HCMV gp68 ectodomain (t-gp68) (human cytomegalovirus (HCMV)) (UniProt F5HC14). The experiment in a line: SPR (Biacore X100), kinetic KD; t-gp68 captured by anti-strep Fab on CM5, hu4D5 Fc variant injected; 2:1 fit, first kinetic constants.
The target in assay [7] is biotinylated FcRn (Acro Biosystems) (UniProt P55899). Briefly: BLI (Octet RED96e), steady state; biotinylated FcRn on SA tips, hu4D5 Fc variant 1000-31.25 nM, pH 6.0.
Sequence of biotinylated FcRn (Acro Biosystems) (P55899 24-297 limits assumed, chain 1 of 2): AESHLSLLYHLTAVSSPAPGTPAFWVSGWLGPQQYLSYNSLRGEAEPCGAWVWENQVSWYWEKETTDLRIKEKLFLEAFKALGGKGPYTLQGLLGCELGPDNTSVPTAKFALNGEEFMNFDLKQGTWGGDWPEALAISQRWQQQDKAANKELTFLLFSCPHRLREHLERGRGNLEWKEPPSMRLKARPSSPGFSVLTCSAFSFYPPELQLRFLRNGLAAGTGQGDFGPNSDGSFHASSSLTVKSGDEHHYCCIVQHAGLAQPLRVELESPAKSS
Sequence of biotinylated FcRn (Acro Biosystems) (chain, as listed by the source limits assumed, chain 2 of 2): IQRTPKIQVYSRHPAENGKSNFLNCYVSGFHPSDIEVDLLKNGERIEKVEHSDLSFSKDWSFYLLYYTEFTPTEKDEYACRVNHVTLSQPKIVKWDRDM
Assay [8] deals with HCMV Merlin gpRL13 ectodomain displayed on ExpiCHO cells (human cytomegalovirus (HCMV), strain Merlin) (UniProt Q6SWC9). The experiment in a line: flow cytometry, ExpiCHO cells displaying the ectodomain, hu4D5 Fc variant titrated, goat anti-Fc gamma-AF647.
Assay [9] addresses HCMV gp68 ectodomain displayed on ExpiCHO cells (human cytomegalovirus (HCMV)) (UniProt P16739). Briefly: flow cytometry, ExpiCHO cells displaying the ectodomain, goat anti-Fc gamma-AF647, 4PL fit; EC50 unit inferred, x axis IgG (nM).
Assay [10] concerns the target HCMV Merlin gpRL12 ectodomain displayed on ExpiCHO cells (human cytomegalovirus (HCMV), strain Merlin) (UniProt Q6SWD0). The description is as above.
The target of assay [11] is HCMV Merlin gpRL13 ectodomain displayed on ExpiCHO cells (human cytomegalovirus (HCMV), strain Merlin) (UniProt Q6SWC9). Described as above.
The target in assay [12] is HCMV viral Fcγ receptors (vFcγRs) on AD169-infected cells. The experiment in a line: cell-based or functional assay.
Assay [13] has the same target. Briefly: flow cytometry, 67 nM antibody on AD169-infected fibroblasts, anti-huFc detection.
Assay [14] has as its target HCMV glycoprotein B (gB) on HCMV-infected MRC5 fibroblasts (human cytomegalovirus (HCMV), strain AD169) (UniProt P06473). The experiment in a line: flow cytometry on AD169-infected fibroblasts, 67 nM antibody.
Assay [15] deals with HCMV viral Fcγ receptors (vFcγRs) on AD169-infected cells. The description is as above.
Assay [16] deals with soluble truncated HCMV gp68 ectodomain (t-gp68) (human cytomegalovirus (HCMV)) (UniProt F5HC14). The experiment in a line: ELISA, gB coated at 2 ug/mL, antibody 100 ug/mL, Gp68 diluted from 50 ug/mL, anti-flag-M2-HRP 1/1000 (table on the sheet).
Assay [17] deals with human CD16A ectodomain fused to mouse CD3 zeta, on BW5147 reporter cells (human; mouse) (UniProt P08637). The experiment in a line: cell-based or functional assay.
Sequence of human CD16A ectodomain fused to mouse CD3 zeta, on BW5147 reporter cells (human; mouse) (P08637 other isoform, or with tags, fused parts or gaps limits assumed): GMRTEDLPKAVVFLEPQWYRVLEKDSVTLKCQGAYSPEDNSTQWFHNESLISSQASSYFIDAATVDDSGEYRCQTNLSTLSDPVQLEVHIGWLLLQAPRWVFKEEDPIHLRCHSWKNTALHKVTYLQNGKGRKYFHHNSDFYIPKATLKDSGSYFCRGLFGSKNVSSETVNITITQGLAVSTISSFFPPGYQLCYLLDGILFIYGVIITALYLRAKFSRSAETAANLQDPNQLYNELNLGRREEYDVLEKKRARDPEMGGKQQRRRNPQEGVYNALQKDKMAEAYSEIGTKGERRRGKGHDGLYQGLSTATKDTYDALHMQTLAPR
Assay [18] deals with soluble HCMV gp34 ectodomain with C150S (gp34-M) (human cytomegalovirus (HCMV), strain AD169) (UniProt P16809). Briefly: ELISA, gB coated at 2 ug/mL, antibody 100 ug/mL, Gp34 diluted from 50 ug/mL, anti-flag-M2-HRP 1/1000 (table on the sheet).
Assay [19] deals with HCMV glycoprotein B (gB) on HCMV-infected MRC5 fibroblasts (human cytomegalovirus (HCMV), strain AD169) (UniProt P06473). Briefly: flow cytometry on AD169-infected MRC5 cells, anti-human Fcγ-AF647.
Assay [20] has the same target. Briefly: flow cytometry on AD169-infected fibroblasts, 67 nM antibody with soluble gp34-M (100 nM) and/or t-gp68 (2000 nM).
For assay [21] the target is unchanged. The experiment in a line: flow cytometry on AD169-infected fibroblasts, 67 nM antibody; gB and vFcγRs both capture.
Assay [22] has the same target. The experiment in a line: flow cytometry, 67 nM antibody on AD169-infected fibroblasts, anti-huFc detection (vFcγRs also present).
For assay [23] the target is unchanged. The experiment in a line: flow cytometry, 67 nM antibody on ΔΔΔ-infected fibroblasts (vFcγRs deleted), anti-huFc detection.

The term EC50 denotes the concentration needed to bring the measured effect to its halfway point. A low value points to an effect from little substance. What is called Kd is the free concentration of one partner at which half of the binding sites on the other are occupied at equilibrium, for simple one-to-one binding. By EC50 (read off the curve) is commonly meant the midpoint of the concentration-response curve. Consider “hu4D5 antibody with G2 Fc (R255Q, H268L, E294K, Q311L, K334E)”, for which the concentration for a half-maximal effect (EC50) amounted to 410 nM in assay [1] and 81 nM in assay [2]. The Kd in assay [3] stood at 1000 nM; in [4] it was 1800 nM; in assay [5] it was 320 nM; in assay [6], 4800 nM; in assay [7] it was 50 nM. The substance also registered an EC50 (read off the curve) in [8] of 30 nM.

Take “hu4D5 antibody with wild-type human IgG1 Fc”: the concentration for a half-maximal effect (EC50) in assay [1] was found to be 40 nM; in assay [2], 74 nM; in [9], 12 nM; in assay [10], 20 nM; in assay [11], 55 nM. The Kd in [3] worked out at 1000 nM; in assay [4] it was 80 nM; in [5], 7.3 nM; in assay [6] it was 69 nM; in [7], 60 nM.

For “hu4D5 antibody with G5 Fc (R255Q, S337F)”, the EC50 in assay [1] was determined as 410 nM; in assay [2], 40 nM; in assay [10], 15 nM; in [11], 230 nM. In addition, the Kd in [3] was determined as 1000 nM; in [4], 850 nM; in [5], 33 nM; in [6] it was 2100 nM; in [7], 90 nM.

For the substance human IgG1 isotype control antibody, the internalization by AD169-infected cells (pHrodo, %) in assay [12] was determined as 10%. The substance also gave a percent of cells stained in assay [13] of 35%.

Consider “SM5-1 (anti-gB) with mouse IgG2a Fc (antibody)”, for which the percent of cells bound in assay [14] was found to be 60%.

The substance “2B1 control antibody with mouse IgG2a Fc and an irrelevant Fab” registered a percent of cells bound in assay [15] of 5%.

Substance “SM5-1 (anti-gB) with wild-type human IgG1 Fc (antibody)” had an EC50 (read off the curve) in assay [16] of 400 ng/mL. In [12], the NK-92 V158 degranulation (CD107a, % cells), AD169/GFP-infected MRC5, 20 µg/ml came to 5%; the internalization by AD169-infected MRC5 (pHrodo, %) came to 37%; the internalization by AD169-infected MRC5 cells (%) was 35%; the internalization by AD169-infected cells (pHrodo, %) was 50%. In assay [12], the internalization by ΔΔΔ-infected cells (vFcγRs deleted; pHrodo, %) turned out to be 7% and the internalization in the presence of soluble gp34-M, t-gp68, or both (%) was in the range of 0 to 5%. In [17], this substance had a CD16A activation, EC50 (mIL-2 of BW-CD16A-ζ reporter cells), AD169-infected MRC5 of 0.0128 ng/mL and a CD16A activation, EC50 (mIL-2 of BW-CD16A-ζ reporter cells), ΔΔΔ-infected MRC5 of 0.00063 ng/mL. Besides, the concentration giving a half-maximal response (EC50 (read off the curve)) in assay [18] stood at 200 ng/mL. The substance further registered a percent of cells stained in assay [19] of 70%. In assay [20], the percent of cells bound was found to be 60%. This substance also gave a percent of cells bound in [21] of 75%. The substance also gave a percent of cells stained in assay [22] of 80%. In assay [23], this substance gave a percent of cells stained of 80%.

“2B1 control antibody with human IgG1 Fc and an irrelevant Fab” showed a percent of cells bound in [15] of 40%. Besides, in assay [12], the internalization by AD169-infected MRC5 (pHrodo, %) amounted to 20% and the internalization in the presence of soluble gp34-M, t-gp68, or both (%) lay in the range of 0 to 5%.

These data come from US20250127885A1.
